Assays:
Assay in all cases: cross-linking; in vivo cross-linking with DSP in S. enterica ATCC14028SΔacrABΔmdsABC::Cm5ΔtolC::Tn10 cells coexpressing MdsA-flag, MdsB-myc and MdsC-hexahistidine (grown to OD600 = 0.8); MdsC-His isolated on a Ni-NTA resin column, cross-linked MdsA detected by anti-flag immunoblot
[1] = target: MdsC-G220A with a c-terminal hexahistidine tag (Salmonella enterica serovar Typhimurium ATCC14028S)
[2] = target: MdsC-G433A with a c-terminal hexahistidine tag (Salmonella enterica serovar Typhimurium ATCC14028S)
[3] = target: MdsC-L441R with a c-terminal hexahistidine tag (Salmonella enterica serovar Typhimurium ATCC14028S)
[4] = target: MdsC with a c-terminal hexahistidine tag (wild type) (Salmonella enterica serovar Typhimurium ATCC14028S)

Substance	MdsA crosslinked, percent of that with wild-type MdsC [1] [%]	MdsA crosslinked, percent of that with wild-type MdsC [2] [%]	MdsA crosslinked, percent of that with wild-type MdsC [3] [%]	crosslinking to MdsC, percent of wild type [4] [%]
MdsA with a c-terminal flag tag (wild type) (from UniProt A0A4P7XPD4 1-408) (natural protein)	20	39	16	–
MdsA-S146D with a c-terminal flag tag (from UniProt A0A4P7XPD4 1-408) (natural protein)	–	–	–	16

Reference: paper PMC4069162
